The values that follow come from patent publication US10869937B2, “Polymer derivatives, and novel polymer derivative imaging probe using same” (Nippon Kayaku Kabushiki Kaisha, priority 2016, dated 2020).

This series is described as follows: Average particle size measurement with single nanoparticle size analyzer IG-1000 (induced diffraction grating method). In kind it is physicochemical. The note with it: 1 mg/mL in ultrapure water, 25° C. The procedure:
The particle size (average particle size) of the nanoparticles according to the invention is measured by, for example, an induced diffraction grating method. An induced diffraction grating method is a method of: (1) irradiating a 1 or 2 mg/mL aqueous solution of the block copolymer of the present invention or a composition including the block copolymer with laser light, thereby forming diffraction gratings by dielectrophoresis; (2) stopping an external force that causes dielectrophoresis, measuring the annihilation rate of the diffraction gratings caused by diffusion, and (3) applying the annihilation rate to the Stokes-Einstein relational equation to obtain the particle size. For example, the particle size may be measured with a single nanoparticle size measuring apparatus, IG-1000, manufactured by Shimadzu Corp.
Measurement of the average particle sizes of the block copolymers of Synthesis Examples and Examples and compositions including those block copolymers was carried out using a single nanoparticle size analyzer, IG-1000, manufactured by Shimadzu Corp. (measurement temperature: 25° C., light intensity at t=0: 100 to 200). Regarding the sample for measuring the average particle size, a solution produced using ultrapure water to a block copolymer concentration of 1 mg/mL or 2 mg/mL and filtered through a 0.45 μm membrane filter, was used.

Regarding “7-ethyl-10-hydroxycamptothecin (EHC)-Bonded and ALEXA FLUOR (registered trademark) 594 Cadaverin (Alexa)-Bonded Product of Polyethylene Glycol (2 kDa)-Polyglutamic Acid (8.3 Polymerization Units) Block Copolymer [Example 3]”, the average particle size is reported as 10 nm.
